Measured values taken from patent US20130236473A1, “THERAPEUTIC AGENTS AND PROPHYLACTIC AGENTS FOR SYMPTOMS ACCOMPANYING AUTOIMMUNE DISEASES, INFLAMMATORY DISEASES, ALLERGY DISEASES AND ORGAN TRANSPLANTS” (OSAKA UNIVERSITY, priority 2010, published 2013).

Tested on: IL-6 amplifier
Assay: Reference Example 3: effect of growth factors on mIL-6 protein production in BC-1 cells (ELISA)
Type: cell-based, mouse
Settings: 24 hours, hIL-6/6R and mIL-17A each 50 ng/ml, growth factor added, versus none added
Description: 2×10^5 mouse BC-1 cells were cultured for 24 hours in an RPMI 1640 medium containing hIL-6/6R proteins each at 50 ng/ml and mIL-17A protein at 50 ng/ml under the condition in which 100 ng/ml of mouse EGF protein (R&D Systems, Inc.), 100 ng/ml of human HB-EGF protein (R&D Systems, Inc.), 0.1, 1, 10, or 100 ng/ml of mouse epiregulin protein (R&D Systems, Inc.), 50 ng/ml of mouse VEGF protein (R&D Systems, Inc.), 50 ng/ml of mouse FGF7 protein (R&D Systems, Inc.), or 300 ng/ml of mPDGF-CC protein (R&D Systems, Inc.) was separately added. Mouse BC-1 cells cultured under the condition in which only hIL-6/6R proteins and mIL-17A protein were added served as a control group.
After the culture, the production amount of mIL-6 protein under each condition was quantified by an ELISA method in the same manner as in Reference Example 1. FIGS. 5 and 6 show the results.

B1: FGF7 protein: mouse FGF7 protein (R&D Systems, Inc.), not a ligand of ErbB1 protein (protein, UniProt P36363 32-194, looked up)
Fibroblast growth factor 7: CNDMSPEQTATSVNCSSPERHTRSYDYMEGGDIRVRRLFCRTQWYLRIDKRGKVKGTQEMKNSYNIMEIRTVAVGIVAIKGVESEYYLAMNKEGKLYAKKECNEDCNFKELILENHYNTYASAKWTHSGGEMFVALNQKGIPVKGKKTKKEQKTAHFLPMAIT
production amount of mIL-6 protein: no significant difference

B2: HB-EGF protein: human HB-EGF protein (R&D Systems, Inc.), ligand of ErbB1 protein (protein)
chain: DLQEADLDLLRVTLSSKPQALATPNKEEHGKRKKKGKGLGKKRDPCLRKYKDFCIHGECKYVKELRAPSCICHPGYHGERCHGLSL
production amount of mIL-6 protein: significantly (p value <0.01) increased
